In PMC11827763, “A Gold Nanoparticle-based Aptasensor for Specific Detection of CA125”:

Target: CA125 (carbohydrate antigen 125) (UniProt Q8WXI7 1-14451)
Experiment: AuNP aggregation aptasensor (A660/A520); 200 nM aptamer, citrate AuNPs ~13 nm, NaCl 1 M stock added after binding; linear 15-160 U/mL, LOD 14.41 U/mL; 50 uL CA125 (15-160 U/mL) + 50 uL aptamer (200 nM), 30 min, room temperature; then 50 uL AuNPs 5 min, 10 uL 1 M NaCl 5 min; buffer and pH not stated
Conditions: protein: commercial; predicted stem-loop

B1: CA125 aptamer (31-mer) (ssDNA)
DNA: TCACTATAGGGAGACAAGAATAAACGCTCAA
binding result: binds
